Laboratory results: patent publication US20190263934A1

Experiments:
[1] = target: biotinylated hFcRn (human) (UniProt P55899); assay: SPR Biacore, pH 6.0
Target sequence in this assay (P55899 24-297 limits assumed, form in doubt, chain 1 of 2): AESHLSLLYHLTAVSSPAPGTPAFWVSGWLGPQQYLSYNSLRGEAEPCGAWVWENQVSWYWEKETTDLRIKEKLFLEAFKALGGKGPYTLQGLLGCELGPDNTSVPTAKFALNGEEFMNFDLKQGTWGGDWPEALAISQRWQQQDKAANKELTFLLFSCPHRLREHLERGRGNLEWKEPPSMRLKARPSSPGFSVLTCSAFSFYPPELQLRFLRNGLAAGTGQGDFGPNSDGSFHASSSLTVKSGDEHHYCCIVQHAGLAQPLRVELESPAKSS
Target sequence in this assay (P61769 21-119 limits assumed, form in doubt, chain 2 of 2, further chain): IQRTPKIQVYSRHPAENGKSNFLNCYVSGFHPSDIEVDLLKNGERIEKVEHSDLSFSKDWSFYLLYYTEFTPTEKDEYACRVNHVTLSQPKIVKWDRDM

[2] = target: rFcRn (rat) (UniProt P13599); assay: SPR Biacore, pH 6.0
Target sequence in this assay (P13599 23-298 limits assumed, form in doubt, chain 1 of 2): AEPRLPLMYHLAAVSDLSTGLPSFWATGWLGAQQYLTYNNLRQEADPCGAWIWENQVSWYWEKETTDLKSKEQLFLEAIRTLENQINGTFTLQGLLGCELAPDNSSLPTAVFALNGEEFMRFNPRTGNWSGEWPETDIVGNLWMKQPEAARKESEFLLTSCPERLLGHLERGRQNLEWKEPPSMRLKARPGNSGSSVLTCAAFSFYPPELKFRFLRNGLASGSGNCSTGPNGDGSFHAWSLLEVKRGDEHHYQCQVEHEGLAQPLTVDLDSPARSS
Target sequence in this assay (P07151 21-119 limits assumed, form in doubt, chain 2 of 2, further chain): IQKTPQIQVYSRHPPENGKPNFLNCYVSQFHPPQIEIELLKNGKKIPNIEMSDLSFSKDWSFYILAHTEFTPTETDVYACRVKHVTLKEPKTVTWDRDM

[3] = target: biotinylated hFcRn (human) (UniProt P55899); assay: SPR Biacore, pH 7.4
Target sequence in this assay (P55899 24-297 limits assumed, form in doubt, chain 1 of 2): as the sequence (P55899 24-297 limits assumed, form in doubt, chain 1 of 2) above
Target sequence in this assay (P61769 21-119 limits assumed, form in doubt, chain 2 of 2, further chain): as the sequence (P61769 21-119 limits assumed, form in doubt, chain 2 of 2, further chain) above

[4] = target: rFcRn (rat) (UniProt P13599); assay: SPR Biacore, pH 7.4
Target sequence in this assay (P13599 23-298 limits assumed, form in doubt, chain 1 of 2): as the sequence (P13599 23-298 limits assumed, form in doubt, chain 1 of 2) above
Target sequence in this assay (P07151 21-119 limits assumed, form in doubt, chain 2 of 2, further chain): as the sequence (P07151 21-119 limits assumed, form in doubt, chain 2 of 2, further chain) above

[5] = target: biotinylated hFcRn (human) (UniProt P55899); assay: SPR Biacore, pH 6.0; remark: listed apart in the source
Target sequence in this assay (P55899 24-297 limits assumed, form in doubt, chain 1 of 2): as the sequence (P55899 24-297 limits assumed, form in doubt, chain 1 of 2) above
Target sequence in this assay (P61769 21-119 limits assumed, form in doubt, chain 2 of 2, further chain): as the sequence (P61769 21-119 limits assumed, form in doubt, chain 2 of 2, further chain) above

[6] = target: Human CD16a (FcγRIIIa) V158 with C-terminal HPC4 tag (human) (UniProt P08637); assay: SPR Biacore FcγRIIIa
Sequence of Human CD16a (FcγRIIIa) V158 with C-terminal HPC4 tag (human) (P08637 17-208 F176V): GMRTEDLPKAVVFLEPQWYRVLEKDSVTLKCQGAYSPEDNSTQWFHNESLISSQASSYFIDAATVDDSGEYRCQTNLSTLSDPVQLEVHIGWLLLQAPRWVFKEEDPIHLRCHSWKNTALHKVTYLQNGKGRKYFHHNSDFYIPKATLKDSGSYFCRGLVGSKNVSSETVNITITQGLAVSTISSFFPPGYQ

[7] = target: rFcRn (rat) (UniProt P13599); assay: BLI Octet screen, pH 6.0
Target sequence in this assay (P13599 23-298 limits assumed, form in doubt, chain 1 of 2): as the sequence (P13599 23-298 limits assumed, form in doubt, chain 1 of 2) above
Target sequence in this assay (P07151 21-119 limits assumed, form in doubt, chain 2 of 2, further chain): as the sequence (P07151 21-119 limits assumed, form in doubt, chain 2 of 2, further chain) above

[8] = target: biotinylated hFcRn (human) (UniProt P55899); assay: Biacore SPR, pH 6.0, bivalent fit
Target sequence in this assay (P55899 24-297, form in doubt, chain 1 of 2): as the sequence (P55899 24-297 limits assumed, form in doubt, chain 1 of 2) above
Target sequence in this assay (P61769 21-119, form in doubt, chain 2 of 2, further chain): as the sequence (P61769 21-119 limits assumed, form in doubt, chain 2 of 2, further chain) above

[9] = target: rFcRn (rat) (UniProt P13599); assay: Biacore SPR, pH 6.0, bivalent fit
Target sequence in this assay (P13599 23-298, form in doubt, chain 1 of 2): as the sequence (P13599 23-298 limits assumed, form in doubt, chain 1 of 2) above
Target sequence in this assay (P07151 21-119, form in doubt, chain 2 of 2, further chain): as the sequence (P07151 21-119 limits assumed, form in doubt, chain 2 of 2, further chain) above

[10] = target: Human CD16a (FcγRIIIa) V158 with C-terminal HPC4 tag (human) (UniProt P08637); assay: SPR Biacore, captured FcγRIIIa-V158
[11] = target: rFcRn (rat) (UniProt P13599); assay: BLI Octet, pH 6.0, purified antibody
Target sequence in this assay (P13599 23-298 limits assumed, form in doubt, chain 1 of 2): as the sequence (P13599 23-298 limits assumed, form in doubt, chain 1 of 2) above
Target sequence in this assay (P07151 21-119 limits assumed, form in doubt, chain 2 of 2, further chain): as the sequence (P07151 21-119 limits assumed, form in doubt, chain 2 of 2, further chain) above

[12] = target: biotinylated hFcRn (human) (UniProt P55899); assay: SPR Biacore, pH 7.4, 1000 nM antibody
Target sequence in this assay (P55899 24-297 limits assumed, form in doubt, chain 1 of 2): as the sequence (P55899 24-297 limits assumed, form in doubt, chain 1 of 2) above
Target sequence in this assay (P61769 21-119 limits assumed, form in doubt, chain 2 of 2, further chain): as the sequence (P61769 21-119 limits assumed, form in doubt, chain 2 of 2, further chain) above

[13] = target: rFcRn (rat) (UniProt P13599); assay: SPR Biacore, pH 7.4, 1000 nM antibody
Target sequence in this assay (P13599 23-298 limits assumed, form in doubt, chain 1 of 2): as the sequence (P13599 23-298 limits assumed, form in doubt, chain 1 of 2) above
Target sequence in this assay (P07151 21-119 limits assumed, form in doubt, chain 2 of 2, further chain): as the sequence (P07151 21-119 limits assumed, form in doubt, chain 2 of 2, further chain) above

| Substance | Kd [1] | koff [1] | kon [1] | Kd [2] | koff [2] | kon [2] | Steady State RU [3] | Steady State RU [4] | kon [5] | % enhanced binding vs WT [6] | fold slower off-rate vs WT [7] | Kd [8] | koff [8] | kon [8] | Kd [9] | koff [9] | kon [9] | FcγRIIIa V158 Affinity Fold Change (relative to WT) [10] | koff [11] | Steady State RU [12] | also measured |
| --- | --- | --- | --- | --- | --- | --- | --- | --- | --- | --- | --- | --- | --- | --- | --- | --- | --- | --- | --- | --- | --- |
| mAb1 N434F (antibody) | 165 nM | 0.05 s⁻¹ | 354000 M⁻¹ s⁻¹ | 26 nM | 0.00336 s⁻¹ | 126000 M⁻¹ s⁻¹ | 22.2 RU | 61.5 RU | 350000 M⁻¹ s⁻¹ | 16 to 40% | > 2 fold | 165 nM | 0.05 s⁻¹ | 350000 M⁻¹ s⁻¹ | 26 nM | 0.0034 s⁻¹ | 126000 M⁻¹ s⁻¹ | 1.16 fold | 0.00118 s⁻¹ | 20.1 RU | Steady State RU [13]: 54.9 RU |
| mAb1 N434Y (antibody) | 137 nM | 0.052 s⁻¹ | 359000 M⁻¹ s⁻¹ | 23 nM | 0.00346 s⁻¹ | 145000 M⁻¹ s⁻¹ | 25.5 RU | 66 RU | 360000 M⁻¹ s⁻¹ | 16 to 40% | > 2 fold | 137 nM | 0.05 s⁻¹ | 360000 M⁻¹ s⁻¹ | 23 nM | 0.0035 s⁻¹ | 145000 M⁻¹ s⁻¹ | 1.41 fold | 0.00133 s⁻¹ | 22.6 RU | koff [5]: 0.05 s⁻¹; Steady State RU [13]: 47 RU |
